# In US6759384:
# Non-standard residues stand in square brackets, D forms with d. *: point of attachment. Phe(4-NH2) = Nc1ccc(C[C@H](N)C(=O)O)cc1; 2Nal = N[C@@H](Cc1ccc2ccccc2c1)C(=O)O; Hyp = O=C(O)[C@@H]1C[C@@H](O)CN1; Cha = N[C@@H](CC1CCCCC1)C(=O)O; Chg = N[C@H](C(=O)O)C1CCCCC1; Tos = Cc1ccc(S(=O)(=O)*)cc1; Cbz = O=C(OCc1ccccc1)*
# Target: human factor Xa (Enzyme Research Laboratories, Inc.) (human) (UniProt P00742)
# Assay: cell-based or functional assay
# Sequence of human factor Xa (Enzyme Research Laboratories, Inc.) (human) (P00742 41-179 limits assumed, chain 1 of 2): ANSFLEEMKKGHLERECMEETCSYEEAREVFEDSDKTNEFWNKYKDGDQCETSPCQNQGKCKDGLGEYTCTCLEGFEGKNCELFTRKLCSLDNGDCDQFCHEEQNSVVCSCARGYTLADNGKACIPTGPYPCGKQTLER
# Sequence of human factor Xa (Enzyme Research Laboratories, Inc.) (human) (P00742 235-488 limits assumed, chain 2 of 2): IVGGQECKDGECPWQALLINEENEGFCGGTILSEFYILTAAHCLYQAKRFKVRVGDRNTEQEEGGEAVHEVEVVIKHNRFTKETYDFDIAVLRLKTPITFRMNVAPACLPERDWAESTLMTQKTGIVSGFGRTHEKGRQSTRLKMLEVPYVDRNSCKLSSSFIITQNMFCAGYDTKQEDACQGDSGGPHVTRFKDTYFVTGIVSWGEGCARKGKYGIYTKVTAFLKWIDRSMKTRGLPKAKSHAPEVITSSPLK
row,Substance,"EC50 (concentration giving 50% inhibition of coagulation), in vitro dilute prothrombin time assay, pooled human plasma"
1,Ac-Y-Chg-R-NH2 (peptide),0.0025 µM
2,Ac-[2Nal][Chg]RLP-NH2,0.14 µM

# Target: human factor Xa (Enzyme Research Laboratories, Inc.) (human) (UniProt P00742)
# Assay: chromogenic FXa inhibition
row,Substance,Ki
1,Ac-Nal(2)-Chg-R-NH2 (peptide),< 100 µM
2,Ac-Pal(4)Me-Chg-Arg-Leu-Pro-NH2 (peptide),< 100 µM
3,Ac-Pal(4)Me-Chg-Pal(4)Me-Leu-Pro-NH2 (peptide),< 100 µM
4,Ac-Pal(4)Me-Chg-PalMe(3)-Leu-Pro-NH2 (peptide),< 100 µM
5,Ac-Pgl(OH)-I-R-L-NH2 (peptide),< 100 µM
6,Ac-Y-Chg-R(NO2)-{ψ(CH2NH)}-L-NH2 (peptide),< 100 µM
7,Ac-Y-Chg-R-NH2 (peptide),< 100 µM
8,Ac-Y-Chg-R-NH-Bzl-4-OMe (peptide),< 100 µM
9,Ac-Y-Chg-R-NH-CH2(2-(1-Et)pyrrolidinyl) (peptide),< 100 µM
10,Ac-Y-Chg-R-NH-CH2(2-(6-EtO)benzylthiazolyl) (peptide),< 100 µM
11,Ac-Y-Chg-R-NH-CH2-Chx (peptide),< 100 µM
12,Ac-Y-Chg-R-NH-CH2CH2-COOH (peptide),< 100 µM
13,Ac-Y-Chg-R-NH-CH2CH2-N(CH3)4 (peptide),< 100 µM
14,Ac-Y-Chg-R-NH-CH2CH2-N-(CH3)2 (peptide),< 100 µM
15,Ac-Y-Chg-R-NH-CH2CH2-O-CH3 (peptide),< 100 µM
16,Ac-Y-Chg-R-NH-Chx (peptide),< 100 µM
17,Ac-Y-I-PalMe(3)-NH2 (peptide),< 100 µM
18,Ac-Y-I-R-L-P-Dab(Ac-Y-I-R-L-P(G-A)3)-OH (peptide),< 100 µM
19,Ac-Y-I-R-L-P-Dab(Ac-Y-I-R-L-P(G-A)6)-OH (peptide),< 100 µM
20,Ac-Y-I-R-N(Me)O-CH3 (peptide),< 100 µM
21,Ac-Y-I-R-NH2 (peptide),< 100 µM
22,Ac-Y-I-R-NH-4-morpholinyl (peptide),< 100 µM
23,Ac-Y-I-R-NH-CH2-4-Pyridyl (peptide),< 100 µM

row,Substance,Ki
1,Ac-Y-I-R-NH-CH2CH2-N(CH3)2 (peptide),< 100 µM
2,Ac-Y-I-R-NH-OCH3 (peptide),< 100 µM
3,Ac-Y-I-R-Nle-Hyp (peptide),< 100 µM
4,Ac-Y-I-R-Piperidyl (peptide),< 100 µM
5,Ac-Y-Nva-R-NH2 (peptide),< 100 µM
6,Ac-[2Nal][Cha]RLP-NH2,< 100 µM
7,Ac-[2Nal][Chg]RLP-NH2,< 100 µM
8,Ac-[Phe(4-NH2)][Chg]RL[Hyp]-NH2,< 100 µM
9,Ac-mAph-Chg-Arg-Leu-Pro-NH2 (peptide),< 100 µM
10,Ac-pAph-Cha-PalMe(3)-(Me)Leu-Pro-NH2 (peptide),< 100 µM
11,Ac-pAph-Chg-Arg (peptide),< 100 µM
12,Ac-pAph-Chg-Arg(HOOC-CH2-CH2)Gly-Pro-NH2 (peptide),< 100 µM
13,Ac-pAph-Chg-Arg-(HOOC-CH2)Gly-Pro-NH2 (peptide),< 100 µM
14,Ac-pAph-Chg-Arg-Cys(CH2COOH)-Pro-NH2 (peptide),< 100 µM
15,Ac-pAph-Chg-Arg-Gla-Pro-NH2 (peptide),< 100 µM
16,Ac-pAph-Chg-Arg-Leu-NH2 (peptide),< 100 µM
17,Ac-pAph-Chg-Arg-Leu-OH (peptide),< 100 µM
18,Ac-pAph-Chg-Arg-NH2 (peptide),< 100 µM
19,"Ac-pAph-Chg-Arg-N[1(1,3-dicarboxy)propyl)]Gly-Pro-NH2 (peptide)",< 100 µM
20,Ac-pAph-Chg-Arg-Pen(CH2COOH)-Pro-NH2 (peptide),< 100 µM
21,Ac-pAph-Chg-Dab(CH ═N(CH3)2)-Leu-Pro-NH2 (peptide),< 100 µM
22,Ac-pAph-Chg-Dap(CH═N(CH3)2)-Leu-Pro-NH2 (peptide),< 100 µM
23,Ac-pAph-Chg-NH-1-[3(N-methylpyridyl)]-1-(methylacetate)ethyl (peptide),< 100 µM

row,Substance,Ki
1,Ac-pAph-Chg-NH-(4-amidinobenzyl) (peptide),< 100 µM
2,Ac-pAph-Chg-NH-(4-trimethyl-ammonium benzyl) (peptide),< 100 µM
3,Ac-pAph-Chg-NH-[1-(1-methyl-4-pyridinium)-2-hydroxy]ethyl (peptide),< 100 µM
4,Ac-pAph-Chg-NH-[1-(1-methyl-4-pyridinium)ethyl (peptide),< 100 µM
5,Ac-pAph-Chg-NH[4-(1-methyl-pyridinium)methyl] (peptide),< 100 µM
6,Ac-pAph-Chg-Pal(3)(CH2COOH)-NH2 (peptide),< 100 µM
7,Ac-pAph-Chg-PalMe(3)-Leu-Pro-NH2 (peptide),< 100 µM
8,Ac-pAph-Chg-PalMe(3)-NH2 (peptide),< 100 µM
9,Ac-pAph-Chg-PalMe(3)-NH(1-methoxycarbonyl)-1-cyclohexyl (peptide),< 100 µM
10,Ac-pAph-Chg-PalMe(3)-NH-(1-methoxycarbonyl)-1-cyclopentyl (peptide),< 100 µM
11,Ac-pAph-Chg-PalMe(3)-NH-(3-thienyl-2-carboxylic acid methyl ester) (peptide),< 100 µM
12,Ac-pAph-Chg-PalMe(3)-NH-(4-carboxycyclohexyl) methyl (peptide),< 100 µM
13,Ac-pAph-Chg-PalMe(3)-NH-(4-methoxycarbonyl-cyclohexyl)methyl (peptide),< 100 µM
14,Ac-pAph-Chg-PalMe(3)-Pen(CH2COOH)-Pro-NH2 (peptide),< 100 µM
15,Ac-pAph-Chg-R-L-P-NH2 (peptide),< 100 µM
16,Ac-pAph-Pgl-PalMe(3)-NH2 (peptide),< 100 µM
17,Ac-y-I-R-NH2 (peptide),< 100 µM
18,Alloc-D-pAph-Chg-Arg-Leu-Pro-NH2 (peptide),< 100 µM
19,Alloc-pAph-Chg-NH-[4-(-methylpyridinium)-methyl] (peptide),< 100 µM
20,Alloc-pAph-Chg-PalMe(3)-NH2 (peptide),< 100 µM
21,Alloc-pAph-Chg-PalMe(3)-Pen(CH2COOH)-Pro-NH2 (peptide),< 100 µM
22,CF3C(O)-(iBu)Tyr-Chg-Arg-OH (peptide),< 100 µM
23,Caff-I-R-NH2 (peptide),< 100 µM

row,Substance,Ki
1,Cbz-I-R-NH2 (peptide),< 100 µM
2,Cbz-Ile-Arg-Leu-NH2,< 100 µM
3,ClCH2CO-Y-I-R-NH2 (peptide),< 100 µM
4,Nal(2)-Cha-R-D(O-Allyl)-NH2 (peptide),< 100 µM
5,Nal(2)-Cha-R-D(O-Allyl)-Sar-NH2 (peptide),< 100 µM
6,Nal(2)-Chg-R-L-P-NH2 (peptide),< 100 µM
7,Pgl(OH)-I-R-L-NH2 (peptide),< 100 µM
8,Ph-C(NOCH2Ph)-CO-I-R-NH2 (peptide),< 100 µM
9,Tfa-(iBu)F(pNH2)-Chg-R-NH2 (peptide),< 100 µM
10,Tfa-(iBu)Nal(2)-Chg-R-L-P-NH2 (peptide),< 100 µM
11,Tfa-(iBu)Y-Chg-R-NH2 (peptide),< 100 µM
12,Tfa-(iBu)Y-I-PalMe(3)-NH2 (peptide),< 100 µM
13,Tfa-(iBu)Y-I-R-NH2 (peptide),< 100 µM
14,Tfa-(iBu)Y-I-R-OH (peptide),< 100 µM
15,Tfa-Y-Chg-R-NH2 (peptide),< 100 µM
16,Tos-Tyr-Ile-Arg-NH2,< 100 µM
17,Y-I-R-NH2 (peptide),< 100 µM
18,pAph-Chg-Arg-Leu-Pro-NH2 (peptide),< 100 µM
19,pal-I-R-C(SBut)-Hyp-NH2 (peptide),< 100 µM
20,y-Chg-R-L-NH2 (peptide),< 100 µM
21,y-Chg-R-NH2 (peptide),< 100 µM
22,y-I-R-NH2 (peptide),< 100 µM
23,y-Tle-R-Nle-P-NH2 (peptide),< 100 µM

# Target: human thrombin (Enzyme Research Laboratories, Inc.) (human) (UniProt P00734)
# Assay: chromogenic enzyme inhibition, IC50 corrected for substrate
row,Substance,Ki
1,TENSTOP (N-alpha-tosyl-Gly-p-amidinophenylalanine methyl ester),2 µM

# Target: human factor Xa (Enzyme Research Laboratories, Inc.) (human) (UniProt P00742)
# Assay: as above
row,Substance,Ki
1,TENSTOP (N-alpha-tosyl-Gly-p-amidinophenylalanine methyl ester),2 µM
